Reference: US12428485B2, “Compositions and methods to block and bind CCR2 to modulate cellular function” (The Research Foundation for The State University of New York, priority 2019, dated 2025)

Experiments:
[1] = system: triple-negative breast cancer (TNBC) tumors; test: Flow cytometry of immune cells in harvested TNBC tumors; type: in vivo, BALB/c mice
Excerpt: At study completion, the tumors were harvested, digested, and single cell suspensions stained for immune cells. Dual-epitope blocking of CCR2 reduced TAMs, MDSCs, and M2-Macrophages and increased M1-Macrophages in triple-negative breast cancer (TNBCs).
We observed that dual-epitope scFv combination treatment outperforms small molecule CCR2 antagonist (SMA) and decreased tumor-associated macrophages (TAMs), myeloid-derived suppressor cells (MDSCs), and M2-macrophages and increased M1-macrophages. Single cell suspension from the harvested tumors were analyzed by flow cytometry. The cells were stained for (A) CD68+ TAMs, (B) MDSCs, (C) MHC class II macrophages (M1), and (D) CD206+ macrophages (M2).
Treatment groups included: PBS, CCR2 small molecule antagonist (SMA), PEG(20K)-ECL2-scFv, PEG(20K)-NTD-scFv, and NTD & ECL2 combination (co-dosing of PEG(20K)-ECL2-scFv and PEG(20K)-NTD-scFv), with *p<0.05, **p<0.01, and ***p<0.001 by one-way ANOVA followed by Tukey's post-test.

[2] = system: TNBCs in the mammary fat pads; test: TNBC tumor growth, dual epitope blocking; type: in vivo, female BALB/c mice; conditions: scFvs 1 mg/kg, SMA 2 mg/kg, tail vein, days 7, 9, 12, 14, 16, 18
Procedure: Further, we evaluated the effect of dual epitope blocking of CCCR2 on tumor growth. TNBCs were injected into the mammary fat pads of female BALB/c mice. Treatment of tumored mice started on days 7, 9, 12, 14, 16, and 18. To enhance the circulation half-life of the NTD-scFv and ECL2-scFv, we used site-directed mutagenesis to introduce a cysteine at the C-terminus of the scFvs for covalent attachment of a PEG-maleimide with molecular weight of 20 kDa. Animals (n=10 per group) were systemically (via tail vein injection) treated with (1) PBS, (2) CCR2-small molecule antagonist (SMA), (3) PEG(20K)-NTD-scFv, (4) PEG(20K)-ECL2-scFv, and (5) a NTD and ECL2 combo (co-dosing of PEG(20K)-NTD-scFv and PEG(20K)-ECL2-scFv).

[3] = system: RAW 264.7 mouse macrophages; test: Macrophage polarization, RT-PCR of M1/M2 marker genes, RAW 264.7; type: cell-based; conditions: RAW 264.7, 24 h; LPS 100 ng/mL, IL-4 20 ng/mL, 58C-scFv 1 μM
Procedure: RAW 264.7 mouse macrophages were incubated with either LPS (100 ng/mL), IL-4 (20 ng/mL; PeproTech, Rocky Hill, NJ), or 58C-scFv (1 μM) for 24 h. For the multivalency studies, RAW 264.7 mouse macrophages were first incubated with IL-4 (20 ng/mL) for 24 h to stimulate an M2 phenotype. Following the 24 h incubation, fresh media with 58C-scFv (89 nM) was added to the cells and incubated for an additional 24 h. Total RNA was isolated with QIAzol lysis reagent (Qiagen, Germany) and total cDNA was generated using the New England Biolabs first stand synthesis kit (Ipswich, MA). RNA expression was detected by reverse transcription (RT)-PCR performed with the SYBR Green PCR kit (Qiagen). For each sample, the ΔΔCt value was calculated. Experiments were performed in triplicate. […]
To assess the effects of the anti-CCR2 scFvs on macrophage polarization, RAW 264.7 and bone marrow-derived macrophages (BMDMs) were treated with NTD-scFv and ECL2-scFv. […] To determine whether these changes were additive, synergistic, or antagonistic, the combination indices (CI) were calculated for NTD-scFv and ECL2-scFv by treating cells with a combination of NTD-scFv and ECL2-scFv. CI was calculated by: CI=(CA,X/ICX,A)+(CB,X/ICX,B), where CA,X and CB,X are the concentration of drug A (in this case NTD-scFv) and B (here, ECL2-scFv) used in combination to achieve x % drug effect. […]

4T1 breast cancer cells = test: Cell binding by flow cytometry, 4T1; conditions: MFI
Excerpt: FIG. 16. ECL2-scFv binding to the ECL2 domain of the CCR2 chemokine receptor.

[4] = system: RAW 264.7 macrophage cells; test: Cell binding analysis by flow cytometry, RAW 264.7; design: species or system mouse; conditions: fluorescently labeled scFv
Procedure: FIG. 13. Binding of monomeric 58C-scFv (circles), low valency 58C-scFv attached to liposomes (triangles), and high valency 58C-scFv attached to liposomes (squares) to RAW 264.7 macrophage cells as determined by flow cytometry. […] The liposomes were incubated with DyLight 650 NHS Ester labeled 58C-scFv at 4° C. overnight. Cells were detached with 5 mM EDTA and re-suspended in PBS to a concentration of 50,000 cells per 300 μL. The cells were incubated with various dilutions of DyLight 650 NHS Ester labeled 58C-scFv (free, low degree of valency, or high degree of valency) for 1 h at 4° C. Cells were washed three times with 5% BSA and analyzed in the APC channel of a MACSQuant Analyzer 10 flow cytometer (Miltenyi Biotec, Bergisch Gladbach, Germany).
Cells were detached with 5 mM EDTA and re-suspended in PBS to a concentration of 50,000 cells per 300 μL. Cells were plated in a 48-well plate and incubated for 30 min at 4° C. After removing the PBS solution, the cells were incubated with various dilutions of DyLight 650 NHS Ester labeled 58C-scFv for 1 h at 4° C. Cells were washed three times with 5% BSA, detached with EDTA, and analyzed in the APC channel of a MACSQuant Analyzer 10 flow cytometer (Miltenyi Biotec, Bergisch Gladbach, Germany).

human CCR2 = target: T1, human CCR2 (Homo sapiens, UniProt P41597); test: Cross-reactivity with human CCR2; type: binding
T1 construct: endogenous in cells; host or cells: MDA-MB-231 human breast cancer cells
T1 sequence (P41597 whole entry): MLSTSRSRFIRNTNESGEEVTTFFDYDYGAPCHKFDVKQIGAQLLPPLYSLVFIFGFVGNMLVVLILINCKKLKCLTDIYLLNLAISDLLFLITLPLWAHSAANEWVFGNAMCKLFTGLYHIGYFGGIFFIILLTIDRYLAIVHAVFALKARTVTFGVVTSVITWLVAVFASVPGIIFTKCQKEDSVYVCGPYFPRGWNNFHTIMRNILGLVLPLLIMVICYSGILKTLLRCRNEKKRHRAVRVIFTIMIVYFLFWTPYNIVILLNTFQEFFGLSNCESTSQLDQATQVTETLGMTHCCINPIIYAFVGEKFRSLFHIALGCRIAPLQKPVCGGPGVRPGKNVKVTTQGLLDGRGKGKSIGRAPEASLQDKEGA

Cc1ccc2c(c1)C1(CCN(CCc3nc(-c4ccccc4)oc3C)CC1)OC(=O)N2 [RS 504393]
effects on TAMs, MDSCs, M1 and M2 macrophages compared to PBS control ([1]; FIG. 24A-D, SMA 2 mg/kg): not significant
change in Tregs, CD8+ and CD4+ T cells compared to PBS treated mice ([1]; flow cytometry): no statistically significant reduction
reduction in tumor volume, order among treatment groups [2]: weakest effect

B1: IL-4: interleukin, M2 promoting agent (protein, UniProt P05112 25-153, looked up)
Interleukin-4: HKCDITLQEIIKTLNSLTEQKTLCTELTVTDIFAASKNTTEKETFCRAATVLRQFYSHHEKDTRCLGATAQQFHRHKQLIRFLKRLDRNLWGLAGLNSCPVKEANQSTLENFLERLKTIMREKYSKCSS
macrophage polarization, M1/M2 gene expression compared to the untreated control [3]: increased both Arg-1 and Mgl2 gene expression

B2: ECL2-scFv: scFv against the 2nd extracellular loop (ECL2) of CCR2; Example 3 names scFv 4h, SEQ ID NO:6 (protein, listed as Homo sapiens)
scFv: MKKTAIAIAVALAGFATVAQADYKDDDDKLQSVLTQPPSASGTPGQRVTISCSGSSSNIGSHTVNWYQQLPGTAPKLLIYRNNQRPSGVPDRFSGSKSGTSASLAISGLRSEDEADYYCAAWDDSLSGVVFGGGTKLTVLGEGKSSGSGSESKASQVTLKESGAEVKKPGASVKVSCKASGYTFTNFYIHWVRRAPGQGLEWMGIINPSDGRTTYAQKFQGRVTMTRDTSTSTLYMELTSLRSEDTAVYYCGRGGHYSNYFGQPSTWGQGTLVTVSSVEAS
binding to 4T1 breast cancer cells (4T1 breast cancer cells): binds
binding to RAW 264.7 cells [4]: binds
cross-reactivity, binding to human CCR2 (human CCR2): bind to human CCR2
